Measured values reported in patent US8445655, “Functional nucleic acid ligands to fluorescent proteins” (Cornell Research Foundation, Inc.).

B1: AP4 (ssRNA)
RNA: GGGAGCACGAUUCCAUGAUUCUCGUAUCAAGGAAGGGUUAUGAGAUUUAGGUAAACGUGGCGAAUUGGGUGGGGAAAGUCCUAAAAAGAGGGCCACCACAGAGGCUUGUAAUCGAUGUUACUAUAGAGGGACACGACUACAAGCUUCUGGACUCGGU
B2: AP6 (ssRNA)
RNA: GGGAGCACGAUUCCAUUGGAUGCCACCGCGACUACGGUUAGUAGGCAUUCUGAGUCGUGGCGAAUUGGGUGGGGAAAGUCCUGAAAAGAGGGCCACCACAGAGGCUCAAACUGGACGUUAAUGACGUUUCGGUUCAGUACAAGCUUCUGGACUCGGU
B3: AP2 (ssRNA)
RNA: GGGAGCACGAUUCCAUGCAAUUGUCGAGUUGUUAGCAGCAGCUUGCAUAUUGAGUCGUGGCGAAUUGGGUGGGGAAAGUCCUAAAAAGAGGGCCACCACAGAGGUUUGUACCCAUACUACAAGCUUCUGGACUCGGU

Molecular target: GFP (wild-type green fluorescent protein) (Aequorea victoria, UniProt P42212 P42212:1-238)
Assay: filter; higher affinity than G16
Details: tags: His-tag (His-tagged GFP used on Ni beads in selection)

Binding result, binds:
B1
B2
B3
